This note sets out measurements from the supplement of paper PMC6755084.

The chains are these.
B1: F1*; the commonest letter at each place (parent)
chain: GAGACCGCAACTGAAAAGTTGTTATCACTTGTCGTAAGACACTTTGGATGGGTTGAAGTTCTGCACGTAGAAGCAAAAGGC

In this series the parent is B1. In words: fraction ligated after 30 min (ligated reads / total reads); higher = more ligase activity. The note with it: with F1*sub RNA substrate (template-directed ligation), 42 °C. The method in brief:
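The ligase ribozyme variants were produced by PCR amplification of oligo-pool templates, T7 transcription and purification on gel. Their ligated and unligated forms were gel-separated, then reverse transcribed with barcoded primers before MiSeq sequencing. Core bases were filtered at a quality of ≥20, and fraction ligated per variant was ligated reads over total reads.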
With GAGACCGCAACTGAAAAGTTGTTATCACTTGGCGTGAGACACTTTGGATGGGTTGAAGTTCTGCACGTAGAAGCAAAAGGC [T32G A36G], the fraction ligated was 0.813.

Turning to GAGACCGCAACTGAAAAGTTGTTATCACTTGGCGTTAGACACTTTGGATGGGTTGAAGTTCTGCACGTAGAAGCAAAAGGC [T32G A36T], the fraction ligated amounted to 0.823.

As for GAGACCGCAACTGAAAAGTTGTTATCACTTGGCGTAAGACACTTGGGATGGGTTGAAGTTCTGCACGTAGAAGCAAAAGGC [T32G T45G], the fraction ligated came out at 0.0918.

Consider GAGACCGCAACTGAAAAGTTGTTATCACTTGGCGTAAGACACTTAGGATGGGTTGAAGTTCTGCACGTAGAAGCAAAAGGC [T32G T45A], for which the fraction ligated turned out to be 0.748.

For the variant GAGACCGCAACTGAAAAGTTGTTATCACTTGGCGTAAGACACTTCGGATGGGTTGAAGTTCTGCACGTAGAAGCAAAAGGC [T32G T45C], the fraction ligated came out at 0.346.

Regarding GAGACCGCAACTGAAAAGTTGTTATCACTTGGCGTAAGACACATTGGATGGGTTGAAGTTCTGCACGTAGAAGCAAAAGGC [T32G T43A], the fraction ligated is 0.812.

With GAGACCGCAACTGAAAAGTTGTTATCACTTGGCGTAAGACACGTTGGATGGGTTGAAGTTCTGCACGTAGAAGCAAAAGGC [T32G T43G], the fraction ligated is 0.792.

As to GAGACCGCAACTGAAAAGTTGTTATCACTTGGCGTAAGACACCTTGGATGGGTTGAAGTTCTGCACGTAGAAGCAAAAGGC [T32G T43C], the fraction ligated is 0.81.

Take GAGACCGCAACTGAAAAGTTGTTATCACTTGTAGTACGACACTTTGGATGGGTTGAAGTTCTGCACGTAGAAGCAAAAGGC [C33A A37C]: the fraction ligated is 0.859.

Consider GAGACCGCAACTGAAAAGTTGTTATCACTTGTAGTAGGACACTTTGGATGGGTTGAAGTTCTGCACGTAGAAGCAAAAGGC [C33A A37G], for which the fraction ligated worked out at 0.872.

As to GAGACCGCAACTGAAAAGTTGTTATCACTTGTAGTTAGACACTTTGGATGGGTTGAAGTTCTGCACGTAGAAGCAAAAGGC [C33A A36T], the fraction ligated amounted to 0.868.

Regarding GAGACCGCAACTGAAAAGTTGTTATCACTTGTAGTCAGACACTTTGGATGGGTTGAAGTTCTGCACGTAGAAGCAAAAGGC [C33A A36C], the fraction ligated turned out to be 0.844.

Regarding GAGACCGCAACTGAAAAGTTGTTATCACTTGTAGTGAGACACTTTGGATGGGTTGAAGTTCTGCACGTAGAAGCAAAAGGC [C33A A36G], the fraction ligated was 0.824.

On to GAGACCGCAACTGAAAAGTTGTTATCACTTGGCATAAGACACTTTGGATGGGTTGAAGTTCTGCACGTAGAAGCAAAAGGC [T32G G34A], for which the fraction ligated was 0.83.

Turning to GAGACCGCAACTGAAAAGTTGTTATCACTTGGCCTAAGACACTTTGGATGGGTTGAAGTTCTGCACGTAGAAGCAAAAGGC [T32G G34C], the fraction ligated amounted to 0.726.

On to GAGACCGCAACTGAAAAGTTGTTATCACTTGGCTTAAGACACTTTGGATGGGTTGAAGTTCTGCACGTAGAAGCAAAAGGC [T32G G34T], for which the fraction ligated amounted to 0.793.

For the variant GAGACCGCAACTGAAAAGTTGTTATCACTTGGCGTAAGACAGTTTGGATGGGTTGAAGTTCTGCACGTAGAAGCAAAAGGC [T32G C42G], the fraction ligated was determined as 0.837.

Take GAGACCGCAACTGAAAAGTTGTTATCACTTGGCGTAAGACAATTTGGATGGGTTGAAGTTCTGCACGTAGAAGCAAAAGGC [T32G C42A]: the fraction ligated came out at 0.845.

Turning to GAGACCGCAACTGAAAAGTTGTTATCACTTGGCGTAAGACATTTTGGATGGGTTGAAGTTCTGCACGTAGAAGCAAAAGGC [T32G C42T], the fraction ligated came to 0.846.

For the variant GAGACCGCAACTGAAAAGTTGTTATCACTTGGCGTAAGACACTTTGGATGGGTTCAAGTTCTGCACGTAGAAGCAAAAGGC [T32G G55C], the fraction ligated was found to be 0.63.

Consider GAGACCGCAACTGAAAAGTTGTTATCACTTGGCGTAAGACACTTTGGATGGGTTTAAGTTCTGCACGTAGAAGCAAAAGGC [T32G G55T], for which the fraction ligated turned out to be 0.798.

Take GAGACCGCAACTGAAAAGTTGTTATCACTTGGCGTAAGACACTTTGGATGGGTTAAAGTTCTGCACGTAGAAGCAAAAGGC [T32G G55A]: the fraction ligated was found to be 0.803.

For GAGACCGCAACTGAAAAGTTGTTATCACTTGGCGAAAGACACTTTGGATGGGTTGAAGTTCTGCACGTAGAAGCAAAAGGC [T32G T35A], the fraction ligated was determined as 0.814.

For the variant GAGACCGCAACTGAAAAGTTGTTATCACTTGGCGGAAGACACTTTGGATGGGTTGAAGTTCTGCACGTAGAAGCAAAAGGC [T32G T35G], the fraction ligated came out at 0.831.

For GAGACCGCAACTGAAAAGTTGTTATCACTTGGCGCAAGACACTTTGGATGGGTTGAAGTTCTGCACGTAGAAGCAAAAGGC [T32G T35C], the fraction ligated amounted to 0.802.

Regarding GAGACCGCAACTGAAAAGTTGTTATCACTTGGGGTAAGACACTTTGGATGGGTTGAAGTTCTGCACGTAGAAGCAAAAGGC [T32G C33G], the fraction ligated is 0.828.

With GAGACCGCAACTGAAAAGTTGTTATCACTTGGTGTAAGACACTTTGGATGGGTTGAAGTTCTGCACGTAGAAGCAAAAGGC [T32G C33T], the fraction ligated stood at 0.856.

With GAGACCGCAACTGAAAAGTTGTTATCACTTGGAGTAAGACACTTTGGATGGGTTGAAGTTCTGCACGTAGAAGCAAAAGGC [T32G C33A], the fraction ligated was 0.843.

As to GAGACCGCAACTGAAAAGTTGTTATCACTTGGCGTAAGACACTTTCGATGGGTTGAAGTTCTGCACGTAGAAGCAAAAGGC [T32G G46C], the fraction ligated is 0.716.

As to GAGACCGCAACTGAAAAGTTGTTATCACTTGGCGTAAGACACTTTAGATGGGTTGAAGTTCTGCACGTAGAAGCAAAAGGC [T32G G46A], the fraction ligated was found to be 0.782.

For GAGACCGCAACTGAAAAGTTGTTATCACTTGGCGTAAGACACTTTTGATGGGTTGAAGTTCTGCACGTAGAAGCAAAAGGC [T32G G46T], the fraction ligated was 0.647.

On to GAGACCGCAACTGAAAAGTTGTTATCACTTGGCGTAAGACACTTTGCATGGGTTGAAGTTCTGCACGTAGAAGCAAAAGGC [T32G G47C], for which the fraction ligated worked out at 0.0306.

Take GAGACCGCAACTGAAAAGTTGTTATCACTTGGCGTAAGACACTTTGTATGGGTTGAAGTTCTGCACGTAGAAGCAAAAGGC [T32G G47T]: the fraction ligated came out at 0.0926.

With GAGACCGCAACTGAAAAGTTGTTATCACTTGGCGTAAGACACTTTGAATGGGTTGAAGTTCTGCACGTAGAAGCAAAAGGC [T32G G47A], the fraction ligated came out at 0.556.
